The assay deals with Aβ oligomers (Aβ42) (human), P05067. The experiment in a line: SPR. The conditions noted are these: remark: other sources report otherwise.
Chain of Aβ oligomers (Aβ42) (human), P05067 (P05067 672-713): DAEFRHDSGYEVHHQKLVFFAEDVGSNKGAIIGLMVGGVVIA

B1: 3F (protein)
chain: MAEVQLLESGGGLVQPGGSLRLSCAASGFTFSSYAMSWVRQAPGKGLEWVSGISNLGLTTGYADSVKGRFTISRDNSKNTLYLQMNSLRAEDTAVYYCAKTTSRFDYWGQGTLVTVSSGGGGSGGGGSGGGGSTDIQMTQSPSSLSASVGDRVTITCRASQSISSYLNWYQQKPGKAPKLLIYKASYLQSGVPSRFSGSGSGTDFTLTISSLQPEDFATYYCQNSAVRPVTFGQGTKVEIKR
In turn, B1 had a Kd of 0.847 nM.

For orientation: Kd means the concentration at which binding is half-saturated. A lower Kd goes with a tighter complex.

The values above are taken from patent US20260285954.
